# Source: paper PMC11979331, “RcSRR1 interferes with the RcCSN5B-mediated deneddylation of RcCRL4 to modulate RcCO proteolysis and prevent rose flowering under red light”
# T1: RcFRSL3 (UniProt A0A2P6RRT4 1-153)
# T1 sequence: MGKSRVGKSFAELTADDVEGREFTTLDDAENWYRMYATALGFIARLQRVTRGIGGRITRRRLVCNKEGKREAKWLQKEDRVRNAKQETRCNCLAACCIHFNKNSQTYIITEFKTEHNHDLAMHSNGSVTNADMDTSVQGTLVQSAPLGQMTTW
# B1: RcSRR1 promoter G-box probe (dsDNA)
# DNA 1: TTCAGGTACCGTATTCACGTTTTTCGAAGTTCAGGTACTA
# DNA 2: TAGTACCTGAACTTCGAAAAACGTGAATACGGTACCTGAA
# Biological target: T1, RcFRSL3
# Test: EMSA; Light Shift Chemiluminescent EMSA kit (buffer per manufacturer), about 2 ug protein, 24 C, 20 min; 6% native PAGE in 0.5x TBE; pH and salt not given
# Conditions: protein: recombinant; tags: GST (pGEX4T-1) per construct section; called His-RcFRSL3 in EMSA section; label: 3' biotin on both strands; blunt
binder,measurement,value
B1,binding result,binds
